B1: Acidic FosW: library-derived peptide able to dissociate the cJun bZIP protein from the TRE sites in TRE mDHFR (peptide)
peptide: MASLEQRAEELARENEELEKEAEELEQELDELQAEIEQLEERNYALRKEIEDLQKQLEKLGAP

Legend:
cJun bZIP = molecular target: T1, cJun bZIP (Homo sapiens, UniProt P05412, S292Y); experiment: Further TBS assay experiment, Example 3 (colony count, FIG. 3); format: cell-based; conditions: for rescue of DHFR expression / change in number of colonies compared to plate 2: co-expressed with TRE mDHFR and cJun bZIP
T1 construct: cJun with the basic region and leucine zipper (cJun bZip); expressed in transfected cells
T1 sequence (P05412 252-315 S292Y limits assumed): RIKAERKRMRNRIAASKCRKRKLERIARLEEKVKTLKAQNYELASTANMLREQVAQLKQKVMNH
Text: This experiment used similar plasmids to those set out in Example 1, with the exception that pET24a was used to express both the lac repressor and test compound using a single plasmid. Specifically, three plasmids were used: i) p300d expressing the mDHFR gene modified to include 15 TREs (TRE mDHFR, generated as described in Example 1); ii) p230d expressing either the leucine zipper part of cJun (cJun LZ) or cJun with the basic region and leucine zipper (cJun bZip); iii) pET24a expressing the lac repressor and either the leucine zipper part of cFos (cFos LZ) or the acidic FosW peptide (acidic FosW).
Plates were generated as set out in the following table:
The number of colonies produced in each plate were counted and this quantification is illustrated in FIG. 3.

AP-1 = AP-1 driven luciferase gene reporter assay; format: cell-based, mammalian; conditions: transfected, versus control and dummy vector; FIG. 2
Text: Wild-type AP-1 proteins have a long stretch of basic amino acids at the N-terminal of the protein which enables DNA binding. Acidic versions of AP-1 proteins can be generated with a long stretch of negatively charged amino acids (in place of the positive) which can serve as a DNA mimic. Acidic AP-1 peptide variants can therefore form heterodimers with wild type AP-1 proteins driven by both the dimerization motif and the negative/positive charge interaction, resulting in their sequestration from the DNA.
In order to test whether the peptides identified as being functional antagonists in the TBS assay are also likely to have the same activity in eukaryotic cells, a AP-1 driven luciferase gene reporter assay was carried out. This assay was carried out using no transfection (control), transfected dummy vector, acidic c-Jun, acidic c-Fos and library-derived peptide treated (FosW).

[1] = co-expressed with TRE mDHFR and cJun bZIP (plates 2 and 3)

Row | Molecule | rescue of DHFR expression / change in number of colonies compared to plate 2 (cJun bZIP) | number of bacterial colonies (cJun bZIP; [1]) [colonies] | number of bacterial colonies (cJun bZIP; control plate 1: co-expressed with TRE mDHFR and cJun LZ (no basic DNA-binding region)) [colonies] | AP-1 driven luciferase activity (AP-1)
1 | cFos LZ: the leucine zipper part of cFos; binds the coiled-coil region of cJun (MASTDTLQAETDQLEDEKYALQTEIANLLKEKEKLGAP) | not able to rescue expression of the DHFR protein | < 20 | > 300 | –
2 | B1 | substantial increase in the number of colonies | > 200 | – | dramatic reduction in the signal

Reference: US20210396736A1, “SCREENING ASSAY” (The University of Bath, priority 2018, published 2021)
